Experimental findings from paper PMC10397247 are described below.

For test [1], the target named is T1, 4H1831-bN.
T1 chain: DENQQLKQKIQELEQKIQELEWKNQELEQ
The test is described as follows: two-hybrid library CCNG1.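 Also: natural log of median RNA to DNA barcode read ratio; higher means stronger binding.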

Test [2] has as its target T2, 4H2586-bN.
T2 chain: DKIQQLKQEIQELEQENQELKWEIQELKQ
The test is described as follows: two-hybrid library CCNG1.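 Also: natural log of median RNA to DNA barcode read ratio; higher means stronger binding.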

Test [3] concerns the target T3, 4H3010-bN.
T3 chain: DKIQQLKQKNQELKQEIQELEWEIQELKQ
In words: two-hybrid library CCNG1.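 Also: natural log of median RNA to DNA barcode read ratio; higher means stronger binding.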

Test [4] deals with T4, 4H3112-bN.
T4 chain: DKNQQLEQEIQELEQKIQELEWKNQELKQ
In words: two-hybrid library CCNG1.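 Also: natural log of median RNA to DNA barcode read ratio; higher means stronger binding.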

Test [5] addresses T5, 4H346-bN.
T5 chain: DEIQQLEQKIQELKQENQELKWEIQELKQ
In words: two-hybrid library CCNG1.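 Also: natural log of median RNA to DNA barcode read ratio; higher means stronger binding.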

The target in test [6] is T6, 4H683-bN.
T6 chain: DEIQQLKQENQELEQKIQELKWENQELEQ
The test is described as follows: two-hybrid library CCNG1.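 Also: natural log of median RNA to DNA barcode read ratio; higher means stronger binding.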

Test [7] deals with T7, 4H797-bN.
T7 chain: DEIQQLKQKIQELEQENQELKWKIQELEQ
In words: two-hybrid library CCNG1.

The target of test [8] is T8, 4H4073-bN.
T8 chain: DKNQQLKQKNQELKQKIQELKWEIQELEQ
In words: two-hybrid library CCNG1.

Test [9] concerns the target T9, O15-bS.
T9 chain: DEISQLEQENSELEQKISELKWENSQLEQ
In words: two-hybrid library CCNG1.

In test [10] the target is T10, 4H2673-bN.
T10 chain: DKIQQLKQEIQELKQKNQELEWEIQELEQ
The test is described as follows: two-hybrid library CCNG1.

Test [11] deals with T11, 4H170-bN.
T11 chain: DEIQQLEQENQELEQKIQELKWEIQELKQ
In words: two-hybrid library CCNG1.

Test [12] addresses T12, 4H575-bN.
T12 chain: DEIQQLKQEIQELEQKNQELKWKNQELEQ
In words: two-hybrid library CCNG1.

Test [13] deals with T13, 4H953-bN.
T13 chain: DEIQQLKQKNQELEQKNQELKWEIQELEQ
In words: two-hybrid library CCNG1.

The target of test [14] is T14, 4H457-bN.
T14 chain: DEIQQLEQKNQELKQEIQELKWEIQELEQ
The test is described as follows: two-hybrid library CCNG1.

The target in test [15] is T15, 4H3926-bN.
T15 chain: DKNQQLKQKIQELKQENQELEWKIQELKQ
The test is described as follows: two-hybrid library CCNG1.

For test [16], the target named is T16, 4H754-bN.
T16 chain: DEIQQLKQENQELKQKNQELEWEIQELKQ
The test is described as follows: two-hybrid library CCNG1.

Test [17] addresses T17, 4H118-bN.
T17 chain: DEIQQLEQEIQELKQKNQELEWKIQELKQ
The test is described as follows: two-hybrid library CCNG1.

Test [18] has as its target T18, 4H968-bN.
T18 chain: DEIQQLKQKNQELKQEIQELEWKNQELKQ
In words: two-hybrid library CCNG1.

Test [19] deals with T19, 4H855-bN.
T19 chain: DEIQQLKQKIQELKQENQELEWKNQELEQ
In words: two-hybrid library CCNG1.

Test [20] addresses T20, 4H3427-bN.
T20 chain: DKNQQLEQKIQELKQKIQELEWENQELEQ
In words: two-hybrid library CCNG1.

The target of test [21] is T21, 4H918-bN.
T21 chain: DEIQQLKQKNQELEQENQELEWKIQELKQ
In words: two-hybrid library CCNG1.

For test [22], the target named is T22, 4H2702-bN.
T22 chain: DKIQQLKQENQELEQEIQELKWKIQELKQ
The test is described as follows: two-hybrid library CCNG1.

Test [23] deals with T23, 4H2627-bN.
T23 chain: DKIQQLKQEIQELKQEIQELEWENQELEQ
In words: two-hybrid library CCNG1.

Test [24] addresses T24, 4H780-bN.
T24 chain: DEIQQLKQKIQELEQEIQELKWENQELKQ
In words: two-hybrid library CCNG1.

Test [25] has as its target T25, P4.
T25 chain: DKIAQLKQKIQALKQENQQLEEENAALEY
The test is described as follows: two-hybrid library CCmax. To be noted: mean of both orientations.

Test [26] deals with T26, P4SN.
T26 chain: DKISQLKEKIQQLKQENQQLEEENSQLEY
The test is described as follows: two-hybrid library CCmax. The settings on record: mean of both orientations.

In the case of DEIQQLEQEIQELKQKNQELEWKIQELKQ [4H118-bN], the interaction score in [1] is -0.392; in test [2] it was 0.735; in test [3], 2.35; in test [4] it was -0.413; in test [5] it was -0.129; in test [6] it was -0.936. The interaction score in test [7] was -0.885; in test [8], -1.59; in test [9] it was -1.04; in test [10] it was 1.25; in test [11], -1.27; in [12], -0.336. Besides, the interaction score in test [13] is -0.648; in [14], -1.63; in [15] it was 1.02; in test [16], -0.655; in test [17], 0.139; in [18], 0.0583. In addition, the interaction score in test [19] is 0.221; in [20] it was -0.395; in test [21] it was -0.314; in test [22] it was 0.0476; in test [23], 0.463; in test [24] it was -0.129.

Take DEIQQLEEEIAQLEQKNAALKEKNQALKY [P3]: the values for the interaction score in [25] and in test [26] were 0.871 and 1.63, respectively.
